The text below walks through data of the nanobody polyreactivity screen of Harvey et al. (2022).

A short description of the data set: yeast display, Sf9 membrane polyspecificity reagent, FACS + sequencing; frameworks hold sequencing errors. The gist of the method: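 Using colony PCR, genes from sorted yeast display clones were amplified, then sequenced on MiSeq at 2 × 250 and filtered by CDR length. The clones had been stained with 10% biotinylated, detergent-solubilized Sf9 membrane reagent for 1 hour at 4 °C and sorted by FACS into low and high (top ~1%) gates on anti-HA and streptavidin fluorescence. Polyreactivity labels come from the gate of origin.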
With “QVQLVESGGGLVQAGGSLRLSCAASGITFYRYAMGWYRQAPGKERELVAAITWSGGSTYYADSVKGRFTISRDNAKNTVYLQMNSLKPEDTAVYYCAVDYTPEDWGDDYWGQGTQVTVSS”, the “polyreactivity (PSR sort gate)” value is “low polyreactivity”.

Regarding “QVQLVESGGGLVQAGGSLRLSCAASGITFYRYAMGWYRQSPGKETQLVAAIRRAGSTYYADSVKGRFTISRDNAKNTVYLQMNSLKPEDTAVYYCAAPYRLEPLSTHGSWGQGTQVTVSS”, the “polyreactivity (PSR sort gate)” value is on record as “high polyreactivity”.

As to “QVQLVESGGGLVQAGGSLRLSCAASGITFYRYAMRWYRQAPGKERELVAAISRSGGSTYYADSVKGRFTISRDNAKNTVYLQMNILKPEDTAVYYCAAYILGNRDGYDYWGQGTQVTVSS”, the “polyreactivity (PSR sort gate)” value is reported as “high polyreactivity”. As to “QVQLVESGGGLVQAGGSLRLSCAASGITFYRYTMGWYRQAPGKERELVAAITWSGGSTYYADSVKGRFTISRDNAKNTVYLQMNSLKPEDTAVYYCAVYLPYSQRYVHYYYWGQGTQVTVSS”, the “polyreactivity (PSR sort gate)” value is listed as “high polyreactivity”.

With “QVQLVESGGGLVQAGGSLRLSCAASGITFYVYAMGWSRQAPGKEREFVAAISTRDGTTYAYSVKGRFTISRDNAKNTVYLQMNSLKPEDTAVYYCAAAYYYDGQQGDFDYWGQGSQVTVSS”, the “polyreactivity (PSR sort gate)” value is on record as “low polyreactivity”. The result for “QVQLVESGGGLVQAGGSLRLSCAASGITFYVYTMGWYRQAPGKERELVAAINGSGGSTNYADSVKGRFPISRDNAKNTVYLQMNSLKPDDTAVYYCAADWSLSLYDYWGQGTQVSVSS” reads “low polyreactivity”; that for “QVQLVESGGGLVQAGGSLRLSCAASGITFYWYTMGLYRQAPGKERELVAAISSRGSSTRYADSVKGRFTISRDNAKNTVYLQMNSLKPEDTAVYYCAADDLSDGYYDEAYEDNYWGQGTQVTVSS”, “low polyreactivity”; that for “QVQLVESGGGLVQAGGSLRLSCAASGITFYWYTMGWYRQAPGKERELVADIDGDGGSTYYAVSVKGRFTISRDNAKNTVYLLMNSVKPEDTGVYFCAAQVWPWGYDYWGQGTQVTVSS”, “high polyreactivity”. The result for “QVQLVESGGGLVQAGGSLRLSCAASGITFYYNAMGWYRQAPGKERELVAAISDGSSTNYADSVKGRFTISRDTAKNTVYLQMNSLKPEDTAVYYCNADLVLFPLTWPYYYWGQGTQVTVSS” reads “low polyreactivity”.

As to “QVQLVESGGGLVQAGGSLRLSCAASGITFYYNDMGWYRQAPGKERELVAAISSGGTTNYADSVKGRFTISRDNAKNTVYLQMNSLKPEDTAVYYCATGYAEPEWYPFVSDYDYWGQGTQVTVSS”, the “polyreactivity (PSR sort gate)” value is reported as “low polyreactivity”. “QVQLVESGGGLVQAGGSLRLSCAASGITFYYYAMGWYRQAPGKLRELVARINSGGSTNYADSVKGRFTISRDNAKNTVYLQMNSLKPEDTAVYYCNAKFRFGTYKTPYDYWGQGTQVTVSS”: the “polyreactivity (PSR sort gate)” value is reported as “low polyreactivity”. “QVQLVESGGGLVQAGGSLRLSCAASGITFYYYAMGWYRQEPGKERELVAAINWSGTSTYYADSVKGRFTISRDNAKNTVYLQMNSLKPEDTAVYYCNAERGRSFWWAYDYWGQGTQVTVSS”: the “polyreactivity (PSR sort gate)” value is “low polyreactivity”. Consider “QVQLVESGGGLVQAGGSLRLSCAASGITFYYYGMGWYRQATGKERELVAAISTGGNTNYADSVKGRFTISRDNAKNTVYLQMNSLKPEDTAVYYCAASFASKYEYWGQGTQVTVSS”, for which the “polyreactivity (PSR sort gate)” value was “high polyreactivity”. With “QVQLVESGGGLVQAGGSLRLSCAASGITFYYYVMGWYRQAPGKERELVAAIDSGDSTYYADSVKGRFTISRDNAKNTVYLQMNSLKPEDTAVYYCAVDYEADNELNGPDQEYGRDSWGQGTQVTVSS”, the “polyreactivity (PSR sort gate)” value was “low polyreactivity”.

For “QVQLVESGGGLVQAGGSLRLSCAASGITIRPYTMGWYRQAPGKERELVARISRRGGSTYYADSVKGRFTISRDNAKNTVYLQMNSLKPEDTAVYYCATRSRAHISPYDYWGQGTQVTVSS”, the “polyreactivity (PSR sort gate)” value was “high polyreactivity”. The result for “QVQLVESGGGLVQAGGSLRLSCAASGITISGYAMGWYRQAPGKERELVAAISRRGGSTYYADSVKGRFTISRDNAKNTVYLQMNSLKPEDTAVYYCARYPSRNYNYWGQGTQVTVSS” reads “high polyreactivity”; that for “QVQLVESGGGLVQAGGSLRLSCAASGITIVNYVMGWYRQAPGKERELVAAISIGGGTYYADSVKGRFTISRDNAKNTVYLQMNSLKPEDTAVYYCNASYGGLSFYIGVYVTGYYYWGQGTQVTVSS”, “low polyreactivity”. “QVQLVESGGGLVQAGGSLRLSCAASGITLAYNAMGLYRQAPGTEREFVAAIDVCGGRTYYADSVKGRFTISRDNAKNTVYLQMNSLKPEDTAVYYCAAADIIDHSFPYDYWGQGTQVTVSS”: the “polyreactivity (PSR sort gate)” value is “low polyreactivity”. On to “QVQLVESGGGLVQAGGSLRLSCAASGITLFYYAMGWYRQAPGKERELVAVISASGGSTYYADSVKGRFTISRDNAKNTVYIQMNSLKPEDTAVYYCAAVAYWRSSSWYYYWGQGTQVTVSS”, for which the “polyreactivity (PSR sort gate)” value was “high polyreactivity”. “QVQLVESGGGLVQAGGSLRLSCAASGITLGRYAMGWYRQAPGQERELVAAISSWSGGSTTYADSVKGRFTISRDNAKNTVYLQMNSLKPEDTAVYYCNARRYYGRYYLGHSDYDYWGQGTQVTVSS”: the “polyreactivity (PSR sort gate)” value is listed as “high polyreactivity”. With “QVQLVESGGGLVQAGGSLRLSCAASGITLGYYAMGWYRQAPGKERELVAAISYSSGSTYYADSVKGRFTIARDTAKNTVYLQMNSLKPEDTAVYYCAKYVTYYLPTYSPSGKHDYWGQVTQVTVSS”, the “polyreactivity (PSR sort gate)” value is reported as “low polyreactivity”.

For the sequence “QVQLVESGGGLVQAGGSLRLSCAASGITLINYAMGWYRQAPGKERELVAAISTSGSSTYYADSVKGRFTISRDNAKNTVYLQMNSLKPEDTAVYYCAAELDVYSLFGYWGQGTQVTVSS”, the “polyreactivity (PSR sort gate)” value was “low polyreactivity”. On to “QVQLVESGGGLVQAGGSLRLSCAASGITLLYNAMGWYRQAPGKERELVAGITGRGGSTYYADSVKGRFTISRDNAKNTVSLQMNSLKPEDNAVYYCAATTDYRYVGRIVIRDDHWGQGTQVTVSS”, for which the “polyreactivity (PSR sort gate)” value is “low polyreactivity”. Consider “QVQLVESGGGLVQAGGSLRLSCAASGITLLYYAMGWYRQAPGKERELVAAISRRGGSTYYADSVKGRFTISRDNAKNTVYLQMNSLKPEDTAVYYCAAYSPYGGYHYLYDYWGQGTQVTVSS”, for which the “polyreactivity (PSR sort gate)” value is “high polyreactivity”.

In the case of “QVQLVESGGGLVQAGGSLRLSCAASGITLNRNAMGWYKQAPGKERELVARISRRGGTTYYADSVKGRFTISRDNAKNTVYLQLNSLKPEDSAVYYCAKVRRRWGYPSYSYPYGYWGQGTQVTVSS”, the “polyreactivity (PSR sort gate)” value is given as “high polyreactivity”. Take “QVQLVESGGGLVQAGGSLRLSCAASGITLQFYAIGWYRQAPGKERELVAAISISGGRTYYADSVKGRFTISRDNAKNTVYLQMNSLKPEDTAVYYCAAYLQRAYRYGYWGQGTQVTVSS”: the “polyreactivity (PSR sort gate)” value was “high polyreactivity”. Take “QVQLVESGGGLVQAGGSLRLSCAASGITLRRYAMGWYRQAPGKDRELVDVISVSGGRTHYADSVKGRFTISRDNAKNSVYLQMNSLNPEDTAVYYGAAHFSYRYYTDEVGYWGQGTQVTVSS”: the “polyreactivity (PSR sort gate)” value is recorded as “high polyreactivity”. On to “QVQLVESGGGLVQAGGSLRLSCAASGITLSANAMGWYRQAPGKERELVATITWSGGSTYYADSVKGRFTISRDNAKNTVYLQMNSLKPEDTAVYYCNARSYDEYPYYSYNYWGQGTQVTVSS”, for which the “polyreactivity (PSR sort gate)” value is reported as “low polyreactivity”. Consider “QVQLVESGGGLVQAGGSLRLSCAASGITLSWYAMGWSRQAPGKERELVAGISGRGGRTYYADSVKGRFTISRDNAKNTVYLQMNSLKPEDTAVYYCAADCPGYRSYDYWGQGTQVTVSS”, for which the “polyreactivity (PSR sort gate)” value is listed as “high polyreactivity”. Take “QVQLVESGGGLVQAGGSLRLSCAASGITLTIYVMGWYRQAPGKEREFVAAISKSGGSTYYADSVKGRFTISRDNAKNTVYLQMNSLKPEDTAVYYCAADVILYDFADYYVIYDYWGQGTQVTVSS”: the “polyreactivity (PSR sort gate)” value is reported as “high polyreactivity”.

Take “QVQLVESGGGLVQAGGSLRLSCAASGITLTKNAMGWYSQAPGKERELVAGITRGSRTNYADSVKGRFTISRDNAKNTVYLQMNSLKPEDTAVYYCAASYWPYRGPVGGSKMYYWGQGTQVTVSS”: the “polyreactivity (PSR sort gate)” value is recorded as “high polyreactivity”. For “QVQLVESGGGLVQAGGSLRLSCAASGITLYANAMGWYREAPGKERELVAVISKGSGSTYYPDSVKGRFTISRDNAKNTVYLQMNSLKPEDTAVYYCAAGRKGSMYYWGQGTQVTVSS”, the “polyreactivity (PSR sort gate)” value was “high polyreactivity”.

In the case of “QVQLVESGGGLVQAGGSLRLSCAASGITLYFYARGWYRQAPGKERELVAAISRGGRTYYADSVKGRFTISRDNAKNTVYLQMNSLKPEDTAVYDCAARYTSEYSAFDYWGQGTQVTVSS”, the “polyreactivity (PSR sort gate)” value is “low polyreactivity”. As to “QVQLVESGGGLVQAGGSLRLSCAASGITLYQYAMGWYRQAPGKERELVAAISWNGGTTYYADSVKGRFTISRDNAKNNVYLQMNSLKPEDTAVYYCAADGYPYGGPSYYYWGQGTQVTVSS”, the “polyreactivity (PSR sort gate)” value is “high polyreactivity”.

As for “QVQLVESGGGLVQAGGSLRLSCAASGITLYRYTMGWDRQAPGTEREFVAAISRSGGSTYYADSVKGRFTISRDNEKNTVYVQMNSLKPEDTAVYYCAARWYEKTTRPYGSWGQGTQVTVSS”, the “polyreactivity (PSR sort gate)” value is “high polyreactivity”.

Turning to “QVQLVESGGGLVQAGGSLRLSCAASGITSKQYAMGWYRQAPGKEWELVAAISGSGTRTYYADSVKGRFTISRDNAKNTVYLQMNSQKPEDTAVYYCAAYYHLVVKRLRYDYWGQGTQVTVSS”, the “polyreactivity (PSR sort gate)” value was “high polyreactivity”. As for “QVQLVESGGGLVQAGGSLRLSCAASGITSNTYAKGWYRQATGKERELVATITSGGSTNYADSVKGRFTISRDNAKNTVYLQMNSLKPEDTAVYFCNREYWLPTQFDYWGQGTQVTVSS”, the “polyreactivity (PSR sort gate)” value is listed as “low polyreactivity”. With “QVQLVESGGGLVQAGGSLRLSCAASGITSPSYAMGWYRQAPGKERELVAAISTSGGDTYYADSVKGRFTISRDKAKNTVYLQMNSLKPEDTAVYYCAAPVPAYQYYYRLKSFGRRYDHWGQGTQVTVSS” the entry was “low polyreactivity”; with “QVQLVESGGGLVQAGGSLRLSCAASGITSVDYAMRWYRQAPGKERELVAAITWSDSSTYYADSVKGRFTISRDNAKNTVYLQMNSLKPEDTAVYYCAAEYYFWGWEFDYWGQGTQVTVSS”, “high polyreactivity”; with “QVQLVESGGGLVQAGGSLRLSCAASGITTRTYAMGWYRQAPGKDRELVAAISDSGDRTYYADSVKGRCTISRDKAKNTVYLQMNSLKPEDTAVYYCAVDAPGPRGEYWGQGTKVTVSS”, “low polyreactivity”.
